This is an account of results in publication PMC7721900, “Assembly properties of bacterial tubulin homolog FtsZ regulated by the positive regulator protein ZipA and ZapA from Pseudomonas aeruginosa” (Scientific Reports, 2020).

Numbering of substitutions follows the chain as printed. In names and notes the source's numbering stands.

Common to all, as to settings: both partners purified
Experiment [1] concerns the target T1, FtsZ from Escherichia coli (E. coli, UniProt P0A9A6 1-383).
T1 construct: FtsZ, Escherichia coli, wild type; in pET11b; also called EcFtsZ; wild type FtsZ; source: bacterially expressed (pET11b), purified (30% ammonium sulfate, source Q 10/10)
T1 sequence (looked up): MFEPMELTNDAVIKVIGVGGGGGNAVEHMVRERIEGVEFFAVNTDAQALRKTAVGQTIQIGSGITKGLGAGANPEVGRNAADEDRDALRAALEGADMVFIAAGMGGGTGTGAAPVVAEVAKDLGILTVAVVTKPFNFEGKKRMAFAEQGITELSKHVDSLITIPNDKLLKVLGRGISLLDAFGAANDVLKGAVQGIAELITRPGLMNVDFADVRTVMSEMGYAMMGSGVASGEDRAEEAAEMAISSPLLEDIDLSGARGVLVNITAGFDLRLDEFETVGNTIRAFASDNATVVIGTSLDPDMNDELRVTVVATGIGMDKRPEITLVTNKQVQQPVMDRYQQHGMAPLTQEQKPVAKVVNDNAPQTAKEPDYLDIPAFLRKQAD
The experiment in a line: light scattering; HMK buffer, room temperature, 340 nm; 7 µM EcFtsZ plus 10 µM EcZapA.

Experiment [2] concerns the target T2, EcFtsZ-F268C labeled with fluorescein (donor) or tetramethylrhodamine (acceptor) (E. coli, UniProt P0A9A6 1-383, F268C, single cysteine labeled separately with Fluorescein 5-maleimide (donor) or Tetramethylrhodamine 5-maleimide (acceptor)).
T2 construct: FtsZ, Escherichia coli, single cysteine mutant F268C (printed as L268C in the results); in pET11b; also called EcFtsZ-L268C; source: bacterially expressed (pET11b), purified (30% ammonium sulfate, source Q 10/10)
T2 sequence (looked up): T1 sequence (looked up) with F268C
The experiment can be described thus: FRET or BRET; HMK buffer; donor- and acceptor-labeled EcFtsZ-F268C polymerized separately for 5 min, alone or with 10 µM ZipA or ZapA, then mixed; decrease of donor fluorescence, single exponential fit; 7 µM EcFtsZ; subunit exchange at steady state. For orientation: BRET reads energy transfer from a luciferase to a nearby fluorophore.

Experiment [3] concerns the target T3, FtsZ from Pseudomonas aeruginosa (P. aeruginosa, UniProt P47204 1-394).
T3 construct: FtsZ, Pseudomonas aeruginosa; cloned in pET15b at NdeI/BamHI; Forms protofilaments and bundles with GTP; also called PaFtsZ; source: E. coli BL21 (pET15b), purified (Talon column, thrombin, source Q 10/10)
T3 sequence (looked up): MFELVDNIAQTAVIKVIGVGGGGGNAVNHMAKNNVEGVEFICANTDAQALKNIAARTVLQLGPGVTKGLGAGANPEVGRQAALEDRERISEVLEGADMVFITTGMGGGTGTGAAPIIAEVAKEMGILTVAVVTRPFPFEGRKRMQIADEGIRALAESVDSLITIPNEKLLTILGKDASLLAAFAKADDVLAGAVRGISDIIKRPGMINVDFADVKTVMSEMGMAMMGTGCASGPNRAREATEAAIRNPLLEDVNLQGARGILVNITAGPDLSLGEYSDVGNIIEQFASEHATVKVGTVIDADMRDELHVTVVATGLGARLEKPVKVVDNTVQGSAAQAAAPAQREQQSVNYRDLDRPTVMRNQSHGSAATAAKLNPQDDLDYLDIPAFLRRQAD
The experiment can be described thus: negative stain electron microscopy; HMK buffer (50 mM HEPES, 100 mM KAc, 5 mM MgAc, pH 7.5), GTP, 1-5 min at room temperature; 3 or 5 µM PaFtsZ alone, or 5 µM PaFtsZ with 10 µM ZipA or ZapA.

The target of experiment [4] is T3, FtsZ from Pseudomonas aeruginosa. The experiment in a line: negative stain electron microscopy; MMK buffer (50 mM MES, 100 mM KAc, 5 mM MgAc, pH 6.5), GTP, 1-5 min at room temperature; 5 µM PaFtsZ alone, or with 10 µM ZipA or ZapA.
The target in experiment [5] is T1, FtsZ from Escherichia coli. The experiment can be described thus: Bodipy fluorescence quenching assay of assembly; HMK buffer, room temperature; 7 µM EcFtsZ (less than 10% Bodipy labeled T151C/Y222W with wild type), alone or with 10 µM ZapA or ZipA.

B1: ZapA from Escherichia coli (natural protein, E. coli, UniProt P0ADS2 1-109, looked up)
chain: MSAQPVDIQIFGRSLRVNCPPDQRDALNQAADDLNQRLQDLKERTRVTNTEQLVFIAALNISYELAQEKAKTRDYAASMEQRIRMLQQTIEQALLEQGRITEKTNQNFE
notes: ZapA, Escherichia coli; cloned in pET15b at NdeI/BamHI; Removal of the His tag is told only for PaFtsZ; also called EcZapA; source: E. coli BL21 (pET15b), purified (Talon column)
Take B1: the binding result in experiment [1] and in experiment [2] was “binds” each time.

B2: ZapA from Pseudomonas aeruginosa (natural protein, P. aeruginosa, UniProt Q9HTW3 1-104, looked up)
chain: MSQSNTLTVQILDKEYCINCPDDERANLESAARYLDGKMREIRSSGKVIGADRVAVMAALNITHDLLHRKERLDQESSSTRERVRELLDRVDRALANPADAGEA
notes: ZapA, Pseudomonas aeruginosa; cloned in pET15b at NdeI/BamHI; Removal of the His tag is told only for PaFtsZ; also called PaZapA; source: E. coli BL21 (pET15b), purified (Talon column)
For B2, the binding result in experiment [3] is recorded as “binds”.

B3: N-terminal truncated PaZipA (26-289) (domain or fragment, P. aeruginosa, UniProt Q9I3I5 26-289, looked up)
chain: RRMRGGKGKLKFKLDRSFANLPDDDGDSAELLGPARVVEHREPSFDEQDLPSVSAREAKERKGGKRQEEPRQGDLDLDEGLALEADPSDAAETVEPRKGKSKGRKEKEREKAPAVAAEPAPVDEVLIINVIARDESGFKGPALLQNILESGLRFGDMDIFHRHESMAGNGEILFSMANAVKPGTFDLDDIDNFSTRAVSFFLGLPGPRHPKQAFDVMVAAARKLAHELNGELKDEQRSVLTAQTIEHYRQRIIDHERRSLMQKR
notes: ZipA, Pseudomonas aeruginosa, residues 26-289; N-terminally truncated to remove the transmembrane domain; Removal of the His tag is told only for PaFtsZ; also called ZipA from Pseudomonas aeruginosa; source: E. coli BL21 (pET15b), purified (Talon column)
In the case of B3, the binding result in experiment [4] is on record as “binds”.

B4: EcFtsZ-T151C/Y222W labeled with Bodipy at Cys151 (natural protein, E. coli, UniProt P0A9A6 1-383, looked up)
chain: T1 sequence (looked up) with T151C, Y222W
modifications: Bodipy-FL N-(2-aminoethyl)maleimide on Cys 151
notes: FtsZ, Escherichia coli, double mutant T151C/Y222W; in pET11b; Used mixed with a ninefold excess of unlabeled wild-type EcFtsZ; also called Bodipy labeled FtsZ; labeled EcFtsZ; source: bacterially expressed (pET11b), purified (30% ammonium sulfate, source Q 10/10)
For the molecule B4, the binding result in experiment [5] is on record as “binds”.
